Target: MAN1 fragment from amino acids 658 to 911 (MAN1C) (human) (UniProt Q9Y2U8)
Assay: SEC + NMR titration

MAN1 fragment from amino acids 658 to 911 (MAN1C) (human), sequence (Q9Y2U8 658-911): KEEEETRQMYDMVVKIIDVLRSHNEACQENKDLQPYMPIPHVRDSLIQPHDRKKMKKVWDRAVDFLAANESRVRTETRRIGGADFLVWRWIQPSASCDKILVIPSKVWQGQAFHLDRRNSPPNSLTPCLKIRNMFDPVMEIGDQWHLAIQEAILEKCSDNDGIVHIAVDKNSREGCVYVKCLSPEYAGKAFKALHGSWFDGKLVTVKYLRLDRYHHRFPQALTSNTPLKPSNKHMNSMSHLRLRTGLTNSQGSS

Kd: 10 to 500 µM
Substance: PPM1A (from UniProt P35813 1-382) (enzyme)
